In publication PMC10348774:

B1: ADAM metallopeptidase domain 10 (ADAM10): tunicamycin (protein)
parent chain: MVLLRVLILLLSWAAGMGGQYGNPLNKYIRHYEGLSYNVDSLHQKHQRAKRAVSHEDQFLRLDFHAHGRHFNLRMKRDTSLFSDEFKVETSNKVLDYDTSHIYTGHIYGEEGSFSHGSVIDGRFEGFIQTRGGTFYVEPAERYIKDRTLPFHSVIYHEDDINYPHKYGPQGGCADHSVFERMRKYQMTGVEEVTQIPQEEHAANGPELLRKKRTTSAEKNTCQLYIQTDHLFFKYYGTREAVIAQISSHVKAIDTIYQTTDFSGIRNISFMVKRIRINTTADEKDPTNPFRFPNIGVEKFLELNSEQNHDDYCLAYVFTDRDFDDGVLGLAWVGAPSGSSGGICEKSKLYSDGKKKSLNTGIITVQNYGSHVPPKVSHITFAHEVGHNFGSPHDSGTECTPGESKNLGQKENGNYIMYARATSGDKLNNNKFSLCSIRNISQVLEKKRNNCFVESGQPICGNGMVEQGEECDCGYSDQCKDECCFDANQPEGRKCKLKPGKQCSPSQGPCCTAQCAFKSKSEKCRDDSDCAREGICNGFTALCPASDPKPNFTDCNRHTQVCINGQCAGSICEKYGLEECTCASSDGKDDKELCHVCCMKKMDPSTCASTGSVQWSRHFSGRTITLQPGSPCNDFRGYCDVFMRCRLVDADGPLARLKKAIFSPELYENIAEWIVAHWWAVLLMGIALIMLMAGFIKICSVHTPSSNPKLPPPKPLPGTLKRRRPPQPIQQPQRQRPRESYQMGHMRR
B2: ADAM metallopeptidase domain 10 (ADAM10): DPAGT1 inhibition/knockdown + Eer I or MG132 (protein)
parent chain: B1 parent chain
B3: ADAM metallopeptidase domain 10 (ADAM10): N278Q (protein)
parent chain: B1 parent chain
B4: ADAM metallopeptidase domain 10 (ADAM10): N267Q (protein)
parent chain: B1 parent chain
B5: ADAM metallopeptidase domain 10 (ADAM10): DPAGT1 silencing (protein)
parent chain: B1 parent chain

Columns and labels:
[1] = flow cytometry of membrane ADAM10; settings: glycan lost; control: control SK-BR-3
[2] = IB of endogenous pre- and matADAM10; settings: glycan lost; control: untreated / vector SK-BR-3
[3] = IB after Eer I or MG132 rescue; settings: glycan lost; control: untreated SK-BR-3
[4] = IB and IF with ER marker Calnexin; settings: glycan lost; control: wild type (implied)
[5] = IB of precursor and mature forms; settings: glycan lost; control: wild type (implied)

Protein | localisation_or_trafficking [1] | expression_or_secretion [2] | other results
B1 | decreases | decreases | 
B2 |  |  | other: proteolytic processing [3]: abolishes
B3 |  |  | localisation_or_trafficking [4]: changes
B4 |  |  | other: proteolytic processing [5]: no change
B5 | decreases | decreases | 
